Measured values from patent US20230025732A1 (INNATE PHARMA, published 2023).

T1: human CD39 expressed at the cell surface (human, UniProt P49961 1-510)
T1 construct: On CHO transfectants, Hek-293T transfectants, Ramos and Mino tumor cells; also called huCD39; CHO-huCD39
T1 sequence: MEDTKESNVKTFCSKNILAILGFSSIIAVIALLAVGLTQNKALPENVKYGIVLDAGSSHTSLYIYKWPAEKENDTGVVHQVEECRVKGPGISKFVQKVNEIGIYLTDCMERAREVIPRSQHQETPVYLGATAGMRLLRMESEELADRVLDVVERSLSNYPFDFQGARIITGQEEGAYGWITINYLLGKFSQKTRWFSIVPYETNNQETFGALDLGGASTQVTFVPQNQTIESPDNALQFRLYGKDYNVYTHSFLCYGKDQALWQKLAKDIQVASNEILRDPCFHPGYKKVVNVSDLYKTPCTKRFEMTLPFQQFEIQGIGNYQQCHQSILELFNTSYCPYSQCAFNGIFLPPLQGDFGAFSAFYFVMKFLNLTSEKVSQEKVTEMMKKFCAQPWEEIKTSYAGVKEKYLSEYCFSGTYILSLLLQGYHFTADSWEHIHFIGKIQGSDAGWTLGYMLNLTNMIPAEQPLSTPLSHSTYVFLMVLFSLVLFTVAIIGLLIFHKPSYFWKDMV

B1: mAb8 H2L1 (antibody, human IgG1, V domains shown)
VH: QVQLVQSGAEVKKPGASVKVSCKASGYTFTDYNMHWVRQAPGQRLEWMGYIVPLNGGSTFNQKFKGRATITVDTSASTAYMELSSLRSEDTAVYYCARGGTRFAYWGQGTLVTVSS
VL: DIVMTQSPDSLAVSLGERATINCRASESVDNFGVSFMYWFQQKPGQPPKLLIYGASNQGSGVPDRFSGSGSGTDFTLTISSLQAEDVAVYYCQQTKEVPYTFGGGTKVEIK
B2: mAb1 H0L0 (antibody, human IgG1, V domains shown)
VH: QVQLVQSGAEVKKPGASVKVSCKASGYTFTDYNMHWVRQAPGQRLEWMGYIVPLNGGSTFNQKFKGRVTITRDTSASTAYMELSSLRSEDTAVYYCARGGTRFAYWGQGTLVTVSS
VL: DIVMTQSPDSLAVSLGERATINCRASESVDNFGVSFMYWYQQKPGQPPKLLIYGASNQGSGVPDRFSGSGSGTDFTLTISSLQAEDVAVYYCQQTKEVPYTFGGGTKVEIK
B3: mAb3 H0L1* (antibody, human IgG1, V domains shown)
VH: QVQLVQSGAEVKKPGASVKVSCKASGYTFTDYNMHWVRQAPGQRLEWMGYIVPLNGGSTFNQKFKGRVTITRDTSASTAYMELSSLRSEDTAVYYCARGGTRFAYWGQGTLVTVSS
VL: DIVMTQSPDSLAVSLGERATINCKASESVDNFGVSFMYWFQQKPGQPPKLLIYGASNQGSGVPDRFSGSGSGTDFTLTISSLQAEDVAVYYCQQTKEVPYTFGGGTKVEIK
B4: mAb7 H2L0 (antibody, human IgG1, V domains shown)
VH: QVQLVQSGAEVKKPGASVKVSCKASGYTFTDYNMHWVRQAPGQRLEWMGYIVPLNGGSTFNQKFKGRATITVDTSASTAYMELSSLRSEDTAVYYCARGGTRFAYWGQGTLVTVSS
VL: DIVMTQSPDSLAVSLGERATINCRASESVDNFGVSFMYWYQQKPGQPPKLLIYGASNQGSGVPDRFSGSGSGTDFTLTISSLQAEDVAVYYCQQTKEVPYTFGGGTKVEIK
B5: mAb9 H2L1* (antibody, human IgG1, V domains shown)
VH: QVQLVQSGAEVKKPGASVKVSCKASGYTFTDYNMHWVRQAPGQRLEWMGYIVPLNGGSTFNQKFKGRATITVDTSASTAYMELSSLRSEDTAVYYCARGGTRFAYWGQGTLVTVSS
VL: DIVMTQSPDSLAVSLGERATINCKASESVDNFGVSFMYWFQQKPGQPPKLLIYGASNQGSGVPDRFSGSGSGTDFTLTISSLQAEDVAVYYCQQTKEVPYTFGGGTKVEIK
B6: mAb10 H2*L0 (antibody, human IgG1, V domains shown)
VH: QVQLVQSGAEVKKPGASVKVSCKASGYTFTDYNMHWVRQAPGQRLEWMGYIVPLNGGSTFSQKFKGRATITVDTSASTAYMELSSLRSEDTAVYYCARGGTRFAYWGQGTLVTVSS
VL: DIVMTQSPDSLAVSLGERATINCRASESVDNFGVSFMYWYQQKPGQPPKLLIYGASNQGSGVPDRFSGSGSGTDFTLTISSLQAEDVAVYYCQQTKEVPYTFGGGTKVEIK
B7: mAb12 H2*L1* (antibody, human IgG1, V domains shown)
VH: QVQLVQSGAEVKKPGASVKVSCKASGYTFTDYNMHWVRQAPGQRLEWMGYIVPLNGGSTFSQKFKGRATITVDTSASTAYMELSSLRSEDTAVYYCARGGTRFAYWGQGTLVTVSS
VL: DIVMTQSPDSLAVSLGERATINCKASESVDNFGVSFMYWFQQKPGQPPKLLIYGASNQGSGVPDRFSGSGSGTDFTLTISSLQAEDVAVYYCQQTKEVPYTFGGGTKVEIK
B8: mAb13 H3L0 (antibody, human IgG1, V domains shown)
VH: QVQLVQSGAEVKKPGASVKVSCKASGYTFTDYNMHWVRQAPGQRLEWIGYIVPLNGGSTFNQKFKGRATITVDTSASTAYMELSSLRSEDTAVYYCARGGTRFAYWGQGTLVTVSS
VL: DIVMTQSPDSLAVSLGERATINCRASESVDNFGVSFMYWYQQKPGQPPKLLIYGASNQGSGVPDRFSGSGSGTDFTLTISSLQAEDVAVYYCQQTKEVPYTFGGGTKVEIK
B9: mAb14 H3L1 (antibody, human IgG1, V domains shown)
VH: QVQLVQSGAEVKKPGASVKVSCKASGYTFTDYNMHWVRQAPGQRLEWIGYIVPLNGGSTFNQKFKGRATITVDTSASTAYMELSSLRSEDTAVYYCARGGTRFAYWGQGTLVTVSS
VL: DIVMTQSPDSLAVSLGERATINCRASESVDNFGVSFMYWFQQKPGQPPKLLIYGASNQGSGVPDRFSGSGSGTDFTLTISSLQAEDVAVYYCQQTKEVPYTFGGGTKVEIK
B10: mAb15 H3L1* (antibody, human IgG1, V domains shown)
VH: QVQLVQSGAEVKKPGASVKVSCKASGYTFTDYNMHWVRQAPGQRLEWIGYIVPLNGGSTFNQKFKGRATITVDTSASTAYMELSSLRSEDTAVYYCARGGTRFAYWGQGTLVTVSS
VL: DIVMTQSPDSLAVSLGERATINCKASESVDNFGVSFMYWFQQKPGQPPKLLIYGASNQGSGVPDRFSGSGSGTDFTLTISSLQAEDVAVYYCQQTKEVPYTFGGGTKVEIK
B11: mAb16 H3*L0 (antibody, human IgG1, V domains shown)
VH: QVQLVQSGAEVKKPGASVKVSCKASGYTFTDYNMHWVRQAPGQRLEWIGYIVPLNGGSTFSQKFQGRATITVDTSASTAYMELSSLRSEDTAVYYCARGGTRFAYWGQGTLVTVSS
VL: DIVMTQSPDSLAVSLGERATINCRASESVDNFGVSFMYWYQQKPGQPPKLLIYGASNQGSGVPDRFSGSGSGTDFTLTISSLQAEDVAVYYCQQTKEVPYTFGGGTKVEIK
B12: mAb18 H3*L1* (antibody, human IgG1, V domains shown)
VH: QVQLVQSGAEVKKPGASVKVSCKASGYTFTDYNMHWVRQAPGQRLEWIGYIVPLNGGSTFSQKFQGRATITVDTSASTAYMELSSLRSEDTAVYYCARGGTRFAYWGQGTLVTVSS
VL: DIVMTQSPDSLAVSLGERATINCKASESVDNFGVSFMYWFQQKPGQPPKLLIYGASNQGSGVPDRFSGSGSGTDFTLTISSLQAEDVAVYYCQQTKEVPYTFGGGTKVEIK
B13: mAb19 H4L0 (antibody, human IgG1, V domains shown)
VH: QVQLVQSGAEVKKPGASVKVSCKASGYTFTDYNMHWVRQAPGQRLEWIGYIVPLNGGSTFNQKFKGRATITVDTSARTAYMELSSLRSEDTAVYYCARGGTRFAYWGQGTLVTVSS
VL: DIVMTQSPDSLAVSLGERATINCRASESVDNFGVSFMYWYQQKPGQPPKLLIYGASNQGSGVPDRFSGSGSGTDFTLTISSLQAEDVAVYYCQQTKEVPYTFGGGTKVEIK
B14: mAb22 H4*L0 (antibody, human IgG1, V domains shown)
VH: QVQLVQSGAEVKKPGASVKVSCKASGYTFTDYNMHWVRQAPGQRLEWIGYIVPLNGGSTFSQKFQGRATITVDTSARTAYMELSSLRSEDTAVYYCARGGTRFAYWGQGTLVTVSS
VL: DIVMTQSPDSLAVSLGERATINCRASESVDNFGVSFMYWYQQKPGQPPKLLIYGASNQGSGVPDRFSGSGSGTDFTLTISSLQAEDVAVYYCQQTKEVPYTFGGGTKVEIK
B15: mAb24 H4*L1* (antibody, human IgG1, V domains shown)
VH: QVQLVQSGAEVKKPGASVKVSCKASGYTFTDYNMHWVRQAPGQRLEWIGYIVPLNGGSTFSQKFQGRATITVDTSARTAYMELSSLRSEDTAVYYCARGGTRFAYWGQGTLVTVSS
VL: DIVMTQSPDSLAVSLGERATINCKASESVDNFGVSFMYWFQQKPGQPPKLLIYGASNQGSGVPDRFSGSGSGTDFTLTISSLQAEDVAVYYCQQTKEVPYTFGGGTKVEIK
B16: mAb5 H1L1 (antibody, human IgG1, V domains shown)
VH: QVQLVQSGAEVKKPGASVKVSCKASGYTFTDYNMHWVRQAPGQRLEWMGYIVPLNGGSTFNQKFKGRVTITVDTSASTAYMELSSLRSEDTAVYYCARGGTRFAYWGQGTLVTVS
VL: DIVMTQSPDSLAVSLGERATINCRASESVDNFGVSFMYWFQQKPGQPPKLLIYGASNQGSGVPDRFSGSGSGTDFTLTISSLQAEDVAVYYCQQTKEVPYTFGGGTKVEIK
B17: mAb4 H1L0 (antibody, human IgG1, V domains shown)
VH: QVQLVQSGAEVKKPGASVKVSCKASGYTFTDYNMHWVRQAPGQRLEWMGYIVPLNGGSTFNQKFKGRVTITVDTSASTAYMELSSLRSEDTAVYYCARGGTRFAYWGQGTLVTVS
VL: DIVMTQSPDSLAVSLGERATINCRASESVDNFGVSFMYWYQQKPGQPPKLLIYGASNQGSGVPDRFSGSGSGTDFTLTISSLQAEDVAVYYCQQTKEVPYTFGGGTKVEIK
B18: mAb6 H1L1* (antibody, human IgG1, V domains shown)
VH: QVQLVQSGAEVKKPGASVKVSCKASGYTFTDYNMHWVRQAPGQRLEWMGYIVPLNGGSTFNQKFKGRVTITVDTSASTAYMELSSLRSEDTAVYYCARGGTRFAYWGQGTLVTVS
VL: DIVMTQSPDSLAVSLGERATINCKASESVDNFGVSFMYWFQQKPGQPPKLLIYGASNQGSGVPDRFSGSGSGTDFTLTISSLQAEDVAVYYCQQTKEVPYTFGGGTKVEIK
B19: mAb21 H4L1* (antibody, human IgG1, kappa, V domains shown)
VH: QVQLVQSGAEVKKPGASVKVSCKASGYTFTDYNMHWVRQAPGQRLEWIGYIVPLNGGSTFNQKFKGRATITVDTSARTAYMELSSLRSEDTAVYYCARGGTRFAYWGQGTLVTVSS
VL: DIVMTQSPDSLAVSLGERATINCKASESVDNFGVSFMYWFQQKPGQPPKLLIYGASNQGSGVPDRFSGSGSGTDFTLTISSLQAEDVAVYYCQQTKEVPYTFGGGTKVEIKR

Tests used:
[1] = biological target: T1, human CD39 expressed at the cell surface; assay: flow cytometry titration on Ramos lymphoma cells (Mean of Fluorescence), panel L1
[2] = biological target: T1, human CD39 expressed at the cell surface; assay: flow cytometry titration on Ramos lymphoma cells (Mean of Fluorescence), panel L0
[3] = biological target: T1, human CD39 expressed at the cell surface; assay: flow cytometry titration on Ramos lymphoma cells (Mean of Fluorescence), panel L1*

| Binder | binding result [2] | binding result [3] | also measured |
| --- | --- | --- | --- |
| B1 |  |  | binding result [1]: binds |
| B2 | binds |  |  |
| B3 |  | binds |  |
| B4 | binds |  |  |
| B5 |  | binds |  |
| B6 | binds |  |  |
| B7 |  | binds |  |
| B8 | binds |  |  |
| B9 |  |  | binding result [1]: binds |
| B10 |  | binds |  |
| B11 | binds |  |  |
| B12 |  | binds |  |
| B13 | binds |  |  |
| B14 | binds |  |  |
| B15 |  | binds |  |
| B16 |  |  | binding result [1]: binds |
| B17 | binds |  |  |
| B18 |  | binds |  |
| B19 |  | binds |  |
